The supplement of paper PMC9170038

System: MS2 coat protein
Assay: apparent KD of MS2 coat protein; designed switch direction (-1 OFF switch, 1 ON switch): 1; higher = weaker reporter binding
Procedure, shortened: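 The buffer was Tris-HCl pH 7.5 with KCl, MgCl2, BSA, DTT, tRNA and Tween-20. In it, SNAP-549-labelled MS2 coat protein was titrated in doubling steps from 0.7 or 1.5 nM to 3 µM over chip-bound RNA switches transcribed by stalled E. coli RNA polymerase on Illumina chips. Apparent KD is the per-design median over clusters of curve fits to normalised fluorescence.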

[1] = input ligand: microRNA oligo, concentration not stated
[2] = Eterna round: R95, input ligand: FMN 200 uM
[3] = Eterna round: R95, input ligand: microRNA oligo, concentration not stated
[4] = Eterna round: R95, input ligand: none

Sequence	apparent KD of MS2 coat protein (input ligand: FMN 200 uM) [µM]	apparent KD of MS2 coat protein [1] [µM]	apparent KD of MS2 coat protein (input ligand: none) [µM]	apparent KD of MS2 coat protein [2] [µM]	apparent KD of MS2 coat protein [3] [µM]	apparent KD of MS2 coat protein [4] [µM]
CGCCCGAAUGAAGGAUAUGGUACAACACGAUGAUCAGAAGGUUAUUAAAGUGGGUGAUGCCGACAUGAGGAUCACCCAUGUUGG [Eternabot solution 40] (Eterna round: R96, puzzle: Same State NG 1)	0.0531	0.06	0.0669	–	–	–
ACAUGAGAUCUAGGAUAUAUUGUACCUACAUGUGACAUGAGGAUCACCCAUGUGGUAAGUAUGACAUAGAAGGAGAAGAUAUGU [Equivalance 95 - Jieux - Same State NG 2] (Eterna round: R96, puzzle: Same State NG 2)	–	0.0539	–	–	–	–
UGUCCAGCCUGAGCUGGACAAAAGCAUGUACAUGAGGAUCACCCAUGUUCAUGUACAAGCUUUUUGCUCGUCUUAUU [salish99_208a_r3_048] (puzzle: Sensor for hsa-mir-208a)	–	–	–	0.465	0.0141	0.491
CAGUACUGUCGAGAGGAUAUGCGGUGAUGGACAUGAGGAUCACCCAUGUUAGCGACAGCAUCACGGCAGAAGGCUCUACUGCUGC [Soteed Omei mod 33] (puzzle: Same State 2)	–	–	–	–	0.0394	–
GUAGAUAUAAAGGAGGAUAUUCAAUGAGAGACAUGAGGAUCACCCAUGUGAGAGUGAGAUGAUAGGAAGAAGGCUUAGAGAGAUG [Altered State 2-6 - Jieux - Same State 2] (puzzle: Same State 2)	–	–	–	0.0641	0.0549	0.072
CGUCCGGCCUGUGCUGGCCGGUUGCUUGUACAUGAGGAUCACCCAUGUUCUUGUGCUGGCUUUUUGCUCGUCUUGUG [salish99_mir208a_019] (puzzle: Sensor for hsa-mir-208a)	–	–	–	0.0315	0.0192	0.0378
GUGGUCAGACAUGAGGAUCACCCAUGUGGAAUAAAUAAGGGACAGGAUAUUCAAUAUAGGAUAUAGAAGAAGGGUUGGUUGGUG (Eterna round: R96, puzzle: Same State NG 3)	–	0.104	–	–	–	–
GUCAGCGAUUGAGGAUAUCACGUCGAUUAGACGUGAGAAGGCGAUCAUAACAUGAGGAUCACCCAUGUAUUACAUGAAGCUGAC [SSNG1/5-A2] (Eterna round: R96, puzzle: Same State NG 1)	0.0196	0.0175	0.0271	–	–	–
AUACCAUCGGGAGGAUAUGGCACCUUAUUGGUGCCAGAAGGUCUAACAUGAGGAUCACCCAUGUGGGAGUGGUCUAAUGACCAC [Eli NG1ss - 87] (Eterna round: R96, puzzle: Same State NG 1)	0.144	0.127	0.186	–	–	–
AAAGGACAUGAGGAUCACCCAUGUAGAAAAUACACAGGAUAUCGUCAUAUCGAAAUAUAAUGAGAAGGGUGCAAAA [Zaanininra] (puzzle: Same State 1)	–	–	–	0.0735	0.179	0.256
GUAAAACAUGAGGAUCACCCAUGUAAUAAUAUGGGAGGAUAUCAGAAUGUAUGUAUGUAAUGAGAAGGCCUAAAUU [Mat - Same State 1 - Mod of Eli - D75] (puzzle: Same State 1)	–	–	–	0.0734	0.61	0.695
AGAUGGUGUGGAAAGGAUAUACUGUUGAGGACAUGAGGAUCACCCAUGUGGUAGAGGAGGUAAGGGUAGAAGGUUCGGGAUUGGU [JR_SS@_Sub020] (puzzle: Same State 2)	–	–	–	0.0299	0.0323	0.0416
UUGCAGUCAGGUGAGGAUAUCAUGAAUUUAACAUGAGGAUCACCCAUGUGCUGCCUUGCAGCAUAUGAGAAGGCACCUGGCUGCU [JL-ss2-3.02 Brourd Mod] (puzzle: Same State 2)	–	–	–	0.106	0.923	0.859
UGAAUAGUGAUAGGAUAUACAUGAGGAAUCCUCGUAGAAGGAUCAUAACAUGAGGAUCACCCAUGUAGCCGUCGAAAGACGGCA [Mat - Same State NG 1 - JL mod - D58] (Eterna round: R96, puzzle: Same State NG 1)	0.2	0.072	0.122	–	–	–
GUCCGUAUCACAGGAUAUCCUAGUCAUGAUCUAGGAGAAGGGUGGCCACAUGAGGAUCACCCAUGUGAAGUGCCAGAGGCACGA [MOD2 Xexeraed] (Eterna round: R96, puzzle: Same State NG 1)	0.687	0.0648	0.149	–	–	–
GACAAUCUAUCUGAGGAUAUCAUGAAAAAAACAUGAGGAUCACCCAUGUGCAGGAAAACUGCAUAUGAGAAGGCAGAUAGAUUGC [salish99_SS2_r3_012] (Eterna round: R96, puzzle: Same State 2)	–	0.429	–	–	–	–

Sequence	apparent KD of MS2 coat protein (input ligand: FMN 200 uM) [µM]	apparent KD of MS2 coat protein [1] [µM]	apparent KD of MS2 coat protein (input ligand: none) [µM]	apparent KD of MS2 coat protein [2] [µM]	apparent KD of MS2 coat protein [3] [µM]	apparent KD of MS2 coat protein [4] [µM]
GGAGAACAUGAGGAUCACCCAUGUGAGAGGGAUGUAGGAUAUGUGAGGAGUAAAGGAGGGACAGAAGGACAGAGAU [JR_SS!_Sub068] (Eterna round: R96, puzzle: Same State 1)	–	0.0304	–	–	–	–
GAUAGACAUGAGGAUCACCCAUGUGACAAAACCACAGGAUAUCAUGCAGGCGUACCUGCAUGAGAAGGGUGAGACU [Ceriinaqu] (puzzle: Same State 1)	–	–	–	0.0297	0.0353	0.022
UGAAUAGUUACAGGAUAUGAGCCGUAAAUUGGGUCAGAAGGGUGGGUGUUCUGCGCUGUGUGUUACAUGAGGAUCACCCAUGUU [SameState NG1 #31] (Eterna round: R96, puzzle: Same State NG 1)	0.162	0.0349	0.0634	–	–	–
GCUGCACAUGAGGAUCACCCAUGUCUUCGGAGUCGAGGAUAUGGUCACUGUAAACAGUGGCCAGAAGGCGAGUAGC [SS1 - Son of Teenbexe v6] (puzzle: Same State 1)	–	–	–	0.0308	0.0378	0.0323
GGUCCAGCCUGAGCUGGACAAAGGCAUGUACAUGAGGAUCACCCAUGUCAUGUACAAGCUUUUUGCUCGUCUUAAAA [JL mod - D87 - 3] (puzzle: Sensor for hsa-mir-208a)	–	–	–	0.168	0.0138	0.22
GUCCAAAACACAGGAUAUCCCAGUCAUGAACUGGGAGAAGGGUGGCCACAUGAGGAUCACCCAUGUGAAGUGCGAGAGGCACGA [Arquarais] (Eterna round: R96, puzzle: Same State NG 1)	0.253	0.595	0.937	–	–	–
UAUUUAAUCGUAGGAUAUAGAAUGAAAUUUGUACUAGAAGGACGUUACAUGAGGAUCACCCAUGUGGUAAGUGGGACAUAGUUU [JR_SSNG1_Sub036] (Eterna round: R96, puzzle: Same State NG 1)	0.141	0.0845	0.0822	–	–	–
CUGAGCAAGCAAGGAUAUCACGUCGAUUAGACGUGAGAAGGUGCUCCUUACAUGAGGAUCACCCAUGUAUAACAUGAAGCUCAG [SSNG1/10-A2] (Eterna round: R96, puzzle: Same State NG 1)	0.19	0.902	1.09	–	–	–
GGGAGACAUGAGGAUCACCCAUGUGAGAAGAGGCGAGGAUAUCGAAAAAAAAAAAAAAAACGAGAAGGCGCGAGAU [salish99-SS1-004] (Eterna round: R96, puzzle: Same State 1)	0.0435	0.133	0.115	–	–	–
UUGAAGAAUUAAGGAUAUCGAGUCAAGAUGUUAAACAUGAGGAUCACCCAUGUGGGUUGCGGUAUCGAGAAGGUAAAUAACAAG [Mat - Same State NG 2 - JL mod - D53] (Eterna round: R96, puzzle: Same State NG 2)	0.0233	0.0236	0.0382	–	–	–
GCCAACACAUGAGGAUAUGGCACCUUAUUGGUGCCAGAAGGCAUGUCUAUUGACAUGAGGAUCACCCAUGUAUUAUAGUUGGCA [Fiskers NG1ss - 14] (Eterna round: R96, puzzle: Same State NG 1)	0.0752	0.214	1.21	–	–	–
UUAAUAAUGUUAGGAUAUACAUGAGGAAUCCUCGUAGAAGGAACAUGACAUGAGGAUCACCCAUGUAGCGCUCCGUAGAGCGCA [Mat - Same State NG 1 - JL mod - D45] (Eterna round: R96, puzzle: Same State NG 1)	1.6	0.0532	0.164	–	–	–
ACAUGAGAUUGAGGAUAUAUUGUACCUACAUGUGACAUGAGGAUCACCCAUGUGGUAAGUAUGACAUAGAAGGCAGAGAUAUGU [Equivalance 84 - Jieux - Same State NG 2] (Eterna round: R96, puzzle: Same State NG 2)	0.0677	0.107	0.0753	–	–	–
UUUAAACAUGAGGAUCACCCAUGUCAACAAAGUCGAGGAUAUGGGCAAAUAAAAUAAGAACCAGAAGGCGAAUAAU [salish99_ss1_r3_068] (puzzle: Same State 1)	–	–	–	0.0492	0.585	0.334
AGUCCAGCCUGAGCUGGACAAAAGCAUGUACAUGAGGAUCACCCAUGUCAUGUACAAGUUUUUUGCUCGUUUUAAUA [Zipper 49 - 18] (puzzle: Sensor for hsa-mir-208a)	–	–	–	0.0489	0.0122	0.052
UUUAGCGUUACAGGAUAUGGUGAGGAUUACCCACUAGAAGGGUAAACAUGUGCGUCGUACAUGAGGAUCACCCAUGUAGGGCGU (Eterna round: R96, puzzle: Same State NG 1)	0.0206	0.0155	0.0206	–	–	–
